Results published in patent US20240108653A1 (UNIVERSITY OF UTAH RESEARCH FOUNDATION, published 2024).
Blank lines part the entries; values can stand above or below the binder they belong to.

Target: T1, Leucine-Rich Repeat and Ig Domain Protein 1 (LINGO1) (UniProt Q96FE5 42-620, limits assumed)
T1 construct: whole, on cells; It is endogenous on Ewing sarcoma cell lines and transduced in K562 cells
T1 sequence (looked up): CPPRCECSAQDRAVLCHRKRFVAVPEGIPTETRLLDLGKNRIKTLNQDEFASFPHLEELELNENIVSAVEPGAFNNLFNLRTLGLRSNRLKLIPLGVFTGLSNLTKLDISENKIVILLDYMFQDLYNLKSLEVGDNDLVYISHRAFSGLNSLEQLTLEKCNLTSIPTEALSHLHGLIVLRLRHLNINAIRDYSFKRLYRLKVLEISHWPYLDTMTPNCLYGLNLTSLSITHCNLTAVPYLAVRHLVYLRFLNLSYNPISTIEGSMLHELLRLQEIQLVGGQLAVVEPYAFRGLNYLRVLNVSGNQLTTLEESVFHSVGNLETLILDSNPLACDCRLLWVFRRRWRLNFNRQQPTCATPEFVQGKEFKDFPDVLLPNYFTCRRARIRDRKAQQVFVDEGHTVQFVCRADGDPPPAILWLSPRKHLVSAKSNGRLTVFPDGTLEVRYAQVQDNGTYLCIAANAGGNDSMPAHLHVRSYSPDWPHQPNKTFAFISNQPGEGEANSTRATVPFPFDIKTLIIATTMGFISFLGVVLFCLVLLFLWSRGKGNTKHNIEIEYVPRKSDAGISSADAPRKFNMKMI
Experiment: flow cytometry on Ewing sarcoma cell lines; scFv detected with anti-FLAG/APC secondary antibody
Experimental: FIGS. 4A-4I show LINGO1-specific CAR T cells show cytotoxic activity against Ewing sarcoma. (FIG. 4A) mRNA expression of LINGO1 and GAPDH housekeeping gene in Ewing sarcoma cell lines and healthy brain tissue as determined by RT-PCR. (FIG. 4B) Schema of CAR construct and four LINGO1-specific scFv domains (FIG. 4C) Binding of LINGO1-specific scFvs at 5 µg/ml and secondary staining with an anti-FLAG/APC antibody (clone: L5). against Ewing sarcoma cell lines as determined by flow cytometry. Secondary antibody alone is shown in grey. (FIG. 4D) LINGO1 CAR surface expression on primary T cells after staining with an anti-HA/APC antibody as determined by flow cytometry. (FIG. 4E) IFNγ secretion as determined by ELISA and (FIG. 4F) anti-tumor activity as determined by luminescence-based cytotoxicity assay of CAR T cells expressing LINGO1 CAR variants after 24 h co-culture with A673 cells at an effector-target ratio of 1:1. (FIG. 4G) Expansion of LINGO1 CAR T cells based on Li81 VLVH and T cels expressing a CAR without a binding domain (ΔscFv). (FIG. 4H) IFNγ and IL2 production as determined by ELISA and (FIG. 4I) anti-tumor activity as determined by luminescence-based cytotoxicity assay by LINGO1 CAR T cells after 24 h co-culture with Ewing sarcoma cell lines at different effector-target ratios. Data represent mean±SD from 3 technical replicates. Statistical significance was determined by two-sided Student's t test.
CAR T cells targeting LINGO1 for the treatment of Ewing sarcoma were developed.

- binding result: binds
B3: Li81 scFv, VHVL orientation (scFv)
scFv: EVQLLESGGGLVQPGGSLRLSCAASGFTFSAYEMKWVRQAPGKGLEWVSVIGPSGGFTFYADSVKGRFTISRDNSKNTLYLQMNSLRAEDTAVYYCATEGDNDAFDIWGQGTTVTVSSGGGGSGGGGSGGGGSDIQMTQSPATLSLSPGERATLSCRASQSVSSYLAWYQQKPGQAPRLLIYDASNRATGIPARFSGSGSGTDFTLTISSLEPEDFAVYYCQQRSNWPMYTFGQGTKLEIK
notes: It was detected with an anti-FLAG/APC antibody, so it carried a FLAG tag; also called Li81 VHVL; LINGO1-specific scFv

- binding result: binds
B4: Li62 scFv, VHVL orientation (scFv)
scFv: EVQLLESGGGLVQPGGSLRLSCAASGFTFSIYPMFWVRQAPGKGLEWVSWIGPSGGITKYADSVKGRFTISRDNSKNTLYLQMNSLRAEDTATYYCAREGHNDWYFDLWGRGTLVTVSSGGGGSGGGGSGGGGSDIQMTQSPSFLSASVGDSVAITCRASQDISRYLAWYQQRPGKAPKLLIYDASNLQTGVPSRFSGSGSGTDFTFTITSLQPEDFGTYYCQQYDTLHPSFGPGTTVDIK
notes: It was detected with an anti-FLAG/APC antibody, so it carried a FLAG tag; also called Li62 VHVL; LINGO1-specific scFv

The next lines start with the binder.

B1: Li81 scFv, VLVH orientation (scFv)
scFv: DIQMTQSPATLSLSPGERATLSCRASQSVSSYLAWYQQKPGQAPRLLIYDASNRATGIPARFSGSGSGTDFTLTISSLEPEDFAVYYCQQRSNWPMYTFGQGTKLEIKGGGGSGGGGSGGGGSEVQLLESGGGLVQPGGSLRLSCAASGFTFSAYEMKWVRQAPGKGLEWVSVIGPSGGFTFYADSVKGRFTISRDNSKNTLYLQMNSLRAEDTAVYYCATEGDNDAFDIWGQGTTVTVSS
notes: It was detected with an anti-FLAG/APC antibody, so it carried a FLAG tag; also called Li81 VLVH; LINGO1-specific scFv
- binding result: binds

B2: Li62 scFv, VLVH orientation (scFv)
scFv: DIQMTQSPSFLSASVGDSVAITCRASQDISRYLAWYQQRPGKAPKLLIYDASNLQTGVPSRFSGSGSGTDFTFTITSLQPEDFGTYYCQQYDTLHPSFGPGTTVDIKGGGGSGGGGSGGGGSEVQLLESGGGLVQPGGSLRLSCAASGFTFSIYPMFWVRQAPGKGLEWVSWIGPSGGITKYADSVKGRFTISRDNSKNTLYLQMNSLRAEDTATYYCAREGHNDWYFDLWGRGTLVTVSS
notes: It was detected with an anti-FLAG/APC antibody, so it carried a FLAG tag; also called Li62 VLVH; LINGO1-specific scFv
- binding result: binds
